Source: patent US20200317768A1 (published 2020)

T1: cynomolgus monkey FcγRIIa1 extracellular domain with C-terminal His-tag (cynomolgus monkey)
T1 construct: also called cyno FcgRIIa1; cynoFcγRIIa1
T1 chain: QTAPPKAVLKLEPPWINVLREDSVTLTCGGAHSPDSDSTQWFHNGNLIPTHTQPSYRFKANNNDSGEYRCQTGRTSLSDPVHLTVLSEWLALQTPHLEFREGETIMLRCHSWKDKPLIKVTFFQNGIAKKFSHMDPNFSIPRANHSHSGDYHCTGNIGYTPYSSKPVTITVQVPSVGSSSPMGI

T2: cynomolgus monkey FcγRIIa2 extracellular domain with C-terminal His-tag (cynomolgus monkey)
T2 construct: also called cyno FcgRIIa2; cynoFcγRIIa2
T2 chain: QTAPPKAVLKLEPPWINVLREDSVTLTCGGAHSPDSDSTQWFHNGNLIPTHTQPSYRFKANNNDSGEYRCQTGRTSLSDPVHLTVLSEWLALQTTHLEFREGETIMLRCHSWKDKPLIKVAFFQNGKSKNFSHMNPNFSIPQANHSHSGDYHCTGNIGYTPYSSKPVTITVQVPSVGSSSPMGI

T3: cynomolgus monkey FcγRIIa3 extracellular domain with C-terminal His-tag (cynomolgus monkey)
T3 construct: also called cyno FcgRIIa3; cynoFcγRIIa3
T3 chain: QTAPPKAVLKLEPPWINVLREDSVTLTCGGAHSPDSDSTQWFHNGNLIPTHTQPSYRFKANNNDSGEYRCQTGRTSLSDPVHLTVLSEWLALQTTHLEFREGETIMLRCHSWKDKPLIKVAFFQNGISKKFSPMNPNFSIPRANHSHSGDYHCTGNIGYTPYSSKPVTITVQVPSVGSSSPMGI

T4: cynomolgus monkey FcγRIIb extracellular domain with C-terminal His-tag (cynomolgus monkey)
T4 construct: also called cyno FcgRIIb; cynoFcγRIIb
T4 chain: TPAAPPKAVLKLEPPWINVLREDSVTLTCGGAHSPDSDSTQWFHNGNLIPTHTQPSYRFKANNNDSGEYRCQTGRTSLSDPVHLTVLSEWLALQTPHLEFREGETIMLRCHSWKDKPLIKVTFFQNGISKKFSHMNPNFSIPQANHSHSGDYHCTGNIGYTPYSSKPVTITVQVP

T5: cynomolgus monkey FcγRIIIaS extracellular domain with C-terminal His-tag (cynomolgus monkey, UniProt Q8SPW2 21-206 at identity 1.00))
T5 construct: also called cyno FcgRIIIaS; cynoFcγRIIIaS
T5 chain: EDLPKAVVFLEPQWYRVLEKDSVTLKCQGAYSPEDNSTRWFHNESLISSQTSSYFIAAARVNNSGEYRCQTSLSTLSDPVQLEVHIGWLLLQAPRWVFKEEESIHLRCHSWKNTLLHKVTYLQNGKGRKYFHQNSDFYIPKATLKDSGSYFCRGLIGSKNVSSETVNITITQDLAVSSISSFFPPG

T6: human FcγRIIaR extracellular domain with C-terminal His-tag (human, UniProt P12318 34-217)
T6 construct: also called human FcgRIIaR; FcγRIIa (type R)
T6 chain: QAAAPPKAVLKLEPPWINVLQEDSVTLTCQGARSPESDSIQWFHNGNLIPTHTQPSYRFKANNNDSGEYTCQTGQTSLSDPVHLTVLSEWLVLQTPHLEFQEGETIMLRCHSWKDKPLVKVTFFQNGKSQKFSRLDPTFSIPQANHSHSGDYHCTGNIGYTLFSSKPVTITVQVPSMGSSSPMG

T7: human FcγRIIb extracellular domain with C-terminal His-tag (human, UniProt P31994 43-217)
T7 construct: also called human FcgRIIb
T7 sequence: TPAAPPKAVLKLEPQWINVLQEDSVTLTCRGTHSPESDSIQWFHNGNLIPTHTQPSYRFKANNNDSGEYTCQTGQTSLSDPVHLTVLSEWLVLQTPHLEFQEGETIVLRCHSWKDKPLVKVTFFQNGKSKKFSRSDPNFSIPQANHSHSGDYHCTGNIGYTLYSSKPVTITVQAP


Legend:
[1] = target: T1, cynomolgus monkey FcγRIIa1 …; assay: SPR (BIACORE); KD of SG1 / KD of variant;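 further: relative to parent M103205H795-SG1 carrying the SG1 human heavy chain constant region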
[2] = target: T2, cynomolgus monkey FcγRIIa2 …; assay: SPR (BIACORE); KD of SG1 / KD of variant;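 further: relative to parent M103205H795-SG1 carrying the SG1 human heavy chain constant region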
[3] = target: T3, cynomolgus monkey FcγRIIa3 …; assay: SPR (BIACORE); KD of SG1 / KD of variant;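 further: relative to parent M103205H795-SG1 carrying the SG1 human heavy chain constant region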
[4] = target: T4, cynomolgus monkey FcγRIIb extracellular …; assay: SPR (BIACORE); KD of SG1 / KD of variant;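 further: relative to parent M103205H795-SG1 carrying the SG1 human heavy chain constant region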
[5] = target: T5, cynomolgus monkey FcγRIIIaS …; assay: SPR (BIACORE); KD of SG1 / KD of variant
[6] = target: T6, human FcγRIIaR extracellular domain …; assay: SPR (BIACORE); KD of SG1 / KD of variant
[7] = target: T7, human FcγRIIb extracellular domain with …; assay: SPR (BIACORE); KD of SG1 / KD of variant
[8] = target: T8, human FcγRIIIaV extracellular domain with C-terminal His-tag (human, UniProt P08637 17-208); assay: SPR (BIACORE); KD of SG1 / KD of variant
T8 construct: also called human FcgRIIIaV
T8 sequence (P08637 17-208 F176V): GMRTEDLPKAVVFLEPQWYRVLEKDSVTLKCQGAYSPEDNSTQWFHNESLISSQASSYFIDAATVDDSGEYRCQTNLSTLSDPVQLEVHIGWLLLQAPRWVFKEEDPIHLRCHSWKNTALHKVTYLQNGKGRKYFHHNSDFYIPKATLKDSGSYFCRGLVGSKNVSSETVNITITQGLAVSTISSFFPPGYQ

[9] = target: T3, cynomolgus monkey FcγRIIa3 …; assay: SPR (BIACORE), antibody captured, FcgR analyte

Binder | KD fold (SG1 = 1) [1] | KD fold (SG1 = 1) [2] | KD fold (SG1 = 1) [3] | KD fold (SG1 = 1) [4] | KD fold (SG1 = 1) [5] | KD fold (SG1 = 1) [6] | KD fold (SG1 = 1) [7] | KD fold (SG1 = 1) [8] | Kd [9]
M103205H795-MY342/M103202L889-SK1 (antibody, human IgG1, kappa, Substitutions introduced into M103205H795-SG1, expressed with M103202L889-SK1 as light chain; EU numbering) heavy: QVTLKESGPVLVKPTETLTLTCTVSGIDLSHDDISWVRQAPGKGLEWVGIISYAGSTYYASWAKGRLTISKDTSKNQVVLTMTNMDPVDTATYYCARGVPAYSHGGDLWGQGTLVTVSSASTKGPSVFPLAPSSKSTSGGTAALGCLVKDYFPEPVTVSWNSGALTSGVHTFPAVLQSSGLYSLSSVVTVPSSSLGTQTYICNVNHKPSNTKVDKKVEPKSCDKTHTCPPCPAPELLLGPSVFLFPPKPKDTLMISRTPEVTCVVVDVSDEDPEVKFNWYVDGVEVHNAKTKPREELYNSTYRVVSVLTVLHQDWLNGKEYKCKVSNKALPKPIEKTISKAKGQPREPQVYTLPPSREEMTKNQVSLTCLVKGFYPSDIAVEWESNGQPENNYKTTPMVLDSDGSFFLYSKLTVDKSRWQQGNVFSCSVMHEALHNHYTQKSLSLSP light: DIVMTQSPATLSLSPGERATLSCTSSQSVYHANWLSWFQQKPGQPPKLLIYWASTLAYGVPSRFSGSGSGTDFTLTISSLQPEDAATYYCAGGYGGGRYAFGQGTKVEIKRTVAAPSVFIFPPSDEQLKSGTASVVCLLNNFYPREAKVQWKVDNALQSGNSQESVTEQDSKDSTYSLSSTLTLSKADYEKHKVYACEVTHQGLSSPVTKSFNRGEC | 0.6 fold | 0.6 fold | 0.3 fold | 1.4 fold | 0.14 fold | 1.1 fold | 1.2 fold | 0.03 fold | 51 µM
M103205H795-MY380/M103202L889-SK1 (antibody, human IgG1, kappa, Substitutions introduced into M103205H795-SG1, expressed with M103202L889-SK1 as light chain; EU numbering) heavy: QVTLKESGPVLVKPTETLTLTCTVSGIDLSHDDISWVRQAPGKGLEWVGIISYAGSTYYASWAKGRLTISKDTSKNQVVLTMTNMDPVDTATYYCARGVPAYSHGGDLWGQGTLVTVSSASTKGPSVFPLAPSSKSTSGGTAALGCLVKDYFPEPVTVSWNSGALTSGVHTFPAVLQSSGLYSLSSVVTVPSSSLGTQTYICNVNHKPSNTKVDKKVEPKSCDKTHTCPPCPAPELLNGPSVFLFPPKPKDTLMISRTPEVTCVVVDVSEEDPEVKFNWYVDGVEVHNAKTKPREEQYNSTYRVVSVLTVLHQDWLNGKEYKCKVSNKALPKPIEKTISKAKGQPREPQVYTLPPSREEMTKNQVSLTCLVKGFYPSDIAVEWESNGQPENNYKTTPKVLDSDGSFFLYSKLTVDKSRWQQGNVFSCSVMHEALHNHYTQKSLSLSP light: DIVMTQSPATLSLSPGERATLSCTSSQSVYHANWLSWFQQKPGQPPKLLIYWASTLAYGVPSRFSGSGSGTDFTLTISSLQPEDAATYYCAGGYGGGRYAFGQGTKVEIKRTVAAPSVFIFPPSDEQLKSGTASVVCLLNNFYPREAKVQWKVDNALQSGNSQESVTEQDSKDSTYSLSSTLTLSKADYEKHKVYACEVTHQGLSSPVTKSFNRGEC | 3.4 fold | 5.1 fold | 3.2 fold | 6.2 fold | 0.13 fold | 1.3 fold | 9.6 fold | 0.08 fold | 3.3 µM
M103205H795-MY386/M103202L889-SK1 (antibody, human IgG1, kappa, Substitutions introduced into M103205H795-SG1, expressed with M103202L889-SK1 as light chain; EU numbering) heavy: QVTLKESGPVLVKPTETLTLTCTVSGIDLSHDDISWVRQAPGKGLEWVGIISYAGSTYYASWAKGRLTISKDTSKNQVVLTMTNMDPVDTATYYCARGVPAYSHGGDLWGQGTLVTVSSASTKGPSVFPLAPSSKSTSGGTAALGCLVKDYFPEPVTVSWNSGALTSGVHTFPAVLQSSGLYSLSSVVTVPSSSLGTQTYICNVNHKPSNTKVDKKVEPKSCDKTHTCPPCPAPELLLGPSVFLFPPKPKDTLMISRTPEVTCVVVDVSDEDPEVKFNWYVDGVEVHNAKTKPREELYNSTYRVVSVLTVLHQDWLNGKEYKCKVSNTALPKPIEKTISKAKGQPREPQVYTLPPSREEMTKNQVSLTCLVKGFYPSDIAVEWESNGQPENNYKTTPPVLDSDGSFFLYSKLTVDKSRWQQGNVFSCSVMHEALHNHYTQKSLSLSP light: DIVMTQSPATLSLSPGERATLSCTSSQSVYHANWLSWFQQKPGQPPKLLIYWASTLAYGVPSRFSGSGSGTDFTLTISSLQPEDAATYYCAGGYGGGRYAFGQGTKVEIKRTVAAPSVFIFPPSDEQLKSGTASVVCLLNNFYPREAKVQWKVDNALQSGNSQESVTEQDSKDSTYSLSSTLTLSKADYEKHKVYACEVTHQGLSSPVTKSFNRGEC | 0.6 fold | 0.9 fold | 1.1 fold | 1.1 fold | 0.14 fold | 0.6 fold | 1 fold | 0.03 fold | 16 µM
M103205H795-MY387/M103202L889-SK1 (antibody, human IgG1, kappa, Substitutions introduced into M103205H795-SG1, expressed with M103202L889-SK1 as light chain; EU numbering) heavy: QVTLKESGPVLVKPTETLTLTCTVSGIDLSHDDISWVRQAPGKGLEWVGIISYAGSTYYASWAKGRLTISKDTSKNQVVLTMTNMDPVDTATYYCARGVPAYSHGGDLWGQGTLVTVSSASTKGPSVFPLAPSSKSTSGGTAALGCLVKDYFPEPVTVSWNSGALTSGVHTFPAVLQSSGLYSLSSVVTVPSSSLGTQTYICNVNHKPSNTKVDKKVEPKSCDKTHTCPPCPAPELLTGPVVFLFPPKPKDTLMISRTPEVTCVVVDVSDEDPEVKFNWYVDGVEVHNAKTKPREEQYNSTYRVVSVLTVLHQDWLNGKEYKCKVSNKALPKPIEKTISKAKGQPREPQVYTLPPSREEMTKNQVSLTCLVKGFYPSDIAVEWESNGQPENNYKTTPPVLDSDGSFFLYSKLTVDKSRWQQGNVFSCSVMHEALHNHYTQKSLSLSP light: DIVMTQSPATLSLSPGERATLSCTSSQSVYHANWLSWFQQKPGQPPKLLIYWASTLAYGVPSRFSGSGSGTDFTLTISSLQPEDAATYYCAGGYGGGRYAFGQGTKVEIKRTVAAPSVFIFPPSDEQLKSGTASVVCLLNNFYPREAKVQWKVDNALQSGNSQESVTEQDSKDSTYSLSSTLTLSKADYEKHKVYACEVTHQGLSSPVTKSFNRGEC | 1.4 fold | 2.7 fold | 12.1 fold | 2.2 fold | 0.14 fold | 3.5 fold | 2.5 fold | 0.17 fold | 1.4 µM
M103205H795-MY388/M103202L889-SK1 (antibody, human IgG1, kappa, Substitutions introduced into M103205H795-SG1, expressed with M103202L889-SK1 as light chain; EU numbering) heavy: QVTLKESGPVLVKPTETLTLTCTVSGIDLSHDDISWVRQAPGKGLEWVGIISYAGSTYYASWAKGRLTISKDTSKNQVVLTMTNMDPVDTATYYCARGVPAYSHGGDLWGQGTLVTVSSASTKGPSVFPLAPSSKSTSGGTAALGCLVKDYFPEPVTVSWNSGALTSGVHTFPAVLQSSGLYSLSSVVTVPSSSLGTQTYICNVNHKPSNTKVDKKVEPKSCDKTHTCPPCPAPELLTGPIVFLFPPKPKDTLMISRTPEVTCVVVDVSDEDPEVKFNWYVDGVEVHNAKTKPREEQYNSTYRVVSVLTVLHQDWLNGKEYKCKVSNKALPKPIEKTISKAKGQPREPQVYTLPPSREEMTKNQVSLTCLVKGFYPSDIAVEWESNGQPENNYKTTPPVLDSDGSFFLYSKLTVDKSRWQQGNVFSCSVMHEALHNHYTQKSLSLSP light: DIVMTQSPATLSLSPGERATLSCTSSQSVYHANWLSWFQQKPGQPPKLLIYWASTLAYGVPSRFSGSGSGTDFTLTISSLQPEDAATYYCAGGYGGGRYAFGQGTKVEIKRTVAAPSVFIFPPSDEQLKSGTASVVCLLNNFYPREAKVQWKVDNALQSGNSQESVTEQDSKDSTYSLSSTLTLSKADYEKHKVYACEVTHQGLSSPVTKSFNRGEC | 1.5 fold | 3 fold | 13.1 fold | 2.4 fold | 0.23 fold | 4.8 fold | 3.1 fold | 0.19 fold | 1.3 µM
